We go through ten molecules from patent publication KR20210028556A (dated 2021).

Where a chain is given by its changes, count along the chain named.

Test [1] addresses T1, 재조합 인간 ROR1-His (Sino Biological, 13968-H08H) (human, UniProt Q01973 30-403).
T1 construct: bought protein
Put plainly: BLI (Octet), ROR1-His on the sensor, 1:1 fit. Background: In BLI a coated tip is dipped into the sample, and binding shifts an interference pattern.

Test [2] addresses T2, 마우스 ROR1 (세포 표면 발현, CHO-mouse ROR1) (mouse, UniProt Q9Z139 30-937).
T2 construct: whole, on cells; transiently overexpressed on CHO cells
As to the kind of experiment: flow cytometry, CHO-mouse ROR1 cells. In general terms: In flow cytometry, cells or beads pass a laser one at a time.

Test [3] has as its target T3, 인간 ROR1 항원 (ELISA 코팅: 실시예 1의 ROR1-Fc 또는 재조합 인간 ROR1-His) (human, UniProt Q01973 30-406).
T3 construct: extracellular domain; tag therefore open
Put plainly: ELISA, IgG on coated human ROR1 protein.

For test [4], the target named is T4, 재조합 마우스 ROR1 단백질 (Acrobiosystems, RO1-M5221) (mouse, UniProt Q9Z139 30-406).
T4 construct: extracellular domain; bought protein; also called 마우스 ROR1 항원
T4 sequence (Q9Z139 30-406): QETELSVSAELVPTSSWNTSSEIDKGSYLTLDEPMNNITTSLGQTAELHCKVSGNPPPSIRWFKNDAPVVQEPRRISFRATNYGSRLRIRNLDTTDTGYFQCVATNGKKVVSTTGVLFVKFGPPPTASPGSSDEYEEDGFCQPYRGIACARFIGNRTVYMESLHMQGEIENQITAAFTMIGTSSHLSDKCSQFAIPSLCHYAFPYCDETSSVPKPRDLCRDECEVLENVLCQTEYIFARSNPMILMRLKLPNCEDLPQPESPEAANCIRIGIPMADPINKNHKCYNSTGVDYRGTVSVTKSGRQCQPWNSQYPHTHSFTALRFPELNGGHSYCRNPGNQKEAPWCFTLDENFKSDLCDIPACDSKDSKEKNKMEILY
Put plainly: ELISA, IgG on coated recombinant mouse ROR1. A general note: ELISA stands for enzyme-linked immunosorbent assay.

Test [5] concerns the target T5, 인간 ROR2 (세포 표면 발현, CHO-human ROR2) (human, UniProt Q01974 34-943).
T5 construct: whole, on cells; negative control, transiently overexpressed on CHO cells
Put plainly: flow cytometry, CHO-human ROR2 cells.

A further test deals with T6, 인간 ROR1 (세포 표면 발현) (human, UniProt Q01973 30-937).
T6 construct: whole, on cells; endogenous on JeKo-1, Mino and other human cancer lines; overexpressed on CHO and MC38 cells; also called hROR1; CHO-human ROR1
T6 sequence (Q01973 30-937): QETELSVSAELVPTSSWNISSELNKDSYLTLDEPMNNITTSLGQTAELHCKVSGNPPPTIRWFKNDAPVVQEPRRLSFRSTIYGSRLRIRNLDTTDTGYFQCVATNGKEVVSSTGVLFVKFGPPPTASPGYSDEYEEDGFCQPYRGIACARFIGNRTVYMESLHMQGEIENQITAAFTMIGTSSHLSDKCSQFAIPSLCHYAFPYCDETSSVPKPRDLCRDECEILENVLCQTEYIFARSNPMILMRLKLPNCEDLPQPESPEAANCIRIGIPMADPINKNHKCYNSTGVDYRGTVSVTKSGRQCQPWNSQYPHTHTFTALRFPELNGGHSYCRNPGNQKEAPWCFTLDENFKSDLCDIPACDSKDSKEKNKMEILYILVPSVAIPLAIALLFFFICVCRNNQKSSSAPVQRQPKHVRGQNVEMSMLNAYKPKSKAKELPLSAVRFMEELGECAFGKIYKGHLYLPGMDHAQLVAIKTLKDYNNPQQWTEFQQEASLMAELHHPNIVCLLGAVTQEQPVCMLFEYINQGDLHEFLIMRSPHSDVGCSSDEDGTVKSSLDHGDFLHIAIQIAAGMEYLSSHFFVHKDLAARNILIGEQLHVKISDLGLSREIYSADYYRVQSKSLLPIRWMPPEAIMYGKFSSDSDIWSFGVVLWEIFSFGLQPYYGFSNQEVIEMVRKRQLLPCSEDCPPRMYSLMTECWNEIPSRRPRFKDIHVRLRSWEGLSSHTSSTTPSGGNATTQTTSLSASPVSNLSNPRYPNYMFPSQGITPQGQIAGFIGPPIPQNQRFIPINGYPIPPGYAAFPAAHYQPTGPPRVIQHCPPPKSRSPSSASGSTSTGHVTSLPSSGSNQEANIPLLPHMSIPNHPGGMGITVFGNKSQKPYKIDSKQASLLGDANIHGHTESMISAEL
Put plainly: flow cytometry, JeKo-1 and Mino cells.

T2 sequence (Q9Z139 30-937): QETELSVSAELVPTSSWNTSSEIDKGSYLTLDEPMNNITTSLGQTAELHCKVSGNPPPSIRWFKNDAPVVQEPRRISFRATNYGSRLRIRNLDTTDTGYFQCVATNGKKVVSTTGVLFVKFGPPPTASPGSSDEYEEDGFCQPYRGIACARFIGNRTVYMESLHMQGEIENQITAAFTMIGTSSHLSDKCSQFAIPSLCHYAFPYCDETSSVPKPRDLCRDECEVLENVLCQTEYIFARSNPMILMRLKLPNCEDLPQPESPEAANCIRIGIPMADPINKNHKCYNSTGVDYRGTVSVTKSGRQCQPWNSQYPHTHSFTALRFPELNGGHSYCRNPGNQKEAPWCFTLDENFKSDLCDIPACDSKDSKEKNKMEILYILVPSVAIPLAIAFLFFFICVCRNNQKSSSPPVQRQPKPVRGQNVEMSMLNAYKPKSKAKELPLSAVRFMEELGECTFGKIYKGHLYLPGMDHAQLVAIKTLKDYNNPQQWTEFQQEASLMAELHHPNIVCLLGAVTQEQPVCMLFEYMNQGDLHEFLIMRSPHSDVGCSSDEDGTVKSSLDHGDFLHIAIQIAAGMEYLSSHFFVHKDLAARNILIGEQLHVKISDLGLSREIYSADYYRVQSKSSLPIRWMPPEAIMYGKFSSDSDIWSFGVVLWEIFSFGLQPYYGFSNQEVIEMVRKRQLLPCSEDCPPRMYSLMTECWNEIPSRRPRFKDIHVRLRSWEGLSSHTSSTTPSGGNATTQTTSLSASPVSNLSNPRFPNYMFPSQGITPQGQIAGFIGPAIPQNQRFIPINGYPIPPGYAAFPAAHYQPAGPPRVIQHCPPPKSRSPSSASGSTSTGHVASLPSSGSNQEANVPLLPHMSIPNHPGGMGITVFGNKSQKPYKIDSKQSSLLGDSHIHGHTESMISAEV
T3 sequence (Q01973 30-406): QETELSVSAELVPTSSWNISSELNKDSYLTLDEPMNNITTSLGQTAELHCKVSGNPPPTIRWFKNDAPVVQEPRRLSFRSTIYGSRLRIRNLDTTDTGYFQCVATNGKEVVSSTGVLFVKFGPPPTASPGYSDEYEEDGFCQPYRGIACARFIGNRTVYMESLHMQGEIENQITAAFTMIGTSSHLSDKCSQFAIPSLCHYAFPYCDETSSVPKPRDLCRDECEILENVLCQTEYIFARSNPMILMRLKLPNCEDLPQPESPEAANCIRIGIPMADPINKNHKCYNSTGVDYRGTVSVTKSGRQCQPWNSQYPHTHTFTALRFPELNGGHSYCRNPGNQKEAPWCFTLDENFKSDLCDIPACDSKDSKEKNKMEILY
T5 sequence (Q01974 34-943): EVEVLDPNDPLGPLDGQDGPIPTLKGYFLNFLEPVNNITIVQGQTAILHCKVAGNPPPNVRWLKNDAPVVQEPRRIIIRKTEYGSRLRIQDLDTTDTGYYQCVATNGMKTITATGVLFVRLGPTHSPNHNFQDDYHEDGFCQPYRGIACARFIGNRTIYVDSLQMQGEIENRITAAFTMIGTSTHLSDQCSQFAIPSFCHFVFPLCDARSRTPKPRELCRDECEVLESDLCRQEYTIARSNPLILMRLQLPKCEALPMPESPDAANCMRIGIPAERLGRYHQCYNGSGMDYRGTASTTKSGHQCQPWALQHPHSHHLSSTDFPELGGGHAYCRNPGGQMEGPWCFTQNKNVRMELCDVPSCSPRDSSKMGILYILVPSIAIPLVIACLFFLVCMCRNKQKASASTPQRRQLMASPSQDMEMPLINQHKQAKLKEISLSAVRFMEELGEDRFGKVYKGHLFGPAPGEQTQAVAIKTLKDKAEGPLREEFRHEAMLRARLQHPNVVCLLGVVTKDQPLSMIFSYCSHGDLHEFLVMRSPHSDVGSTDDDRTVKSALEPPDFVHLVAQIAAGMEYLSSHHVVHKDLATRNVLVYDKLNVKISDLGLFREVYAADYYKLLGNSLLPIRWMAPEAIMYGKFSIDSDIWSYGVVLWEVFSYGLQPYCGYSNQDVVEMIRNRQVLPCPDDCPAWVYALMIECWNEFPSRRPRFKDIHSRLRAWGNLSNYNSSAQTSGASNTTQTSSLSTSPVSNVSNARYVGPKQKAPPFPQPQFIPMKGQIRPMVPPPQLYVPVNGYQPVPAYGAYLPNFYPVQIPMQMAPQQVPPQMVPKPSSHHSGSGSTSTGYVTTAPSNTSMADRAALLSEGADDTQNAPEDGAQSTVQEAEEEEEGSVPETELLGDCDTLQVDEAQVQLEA
T1 sequence (Q01973 30-403 limits assumed): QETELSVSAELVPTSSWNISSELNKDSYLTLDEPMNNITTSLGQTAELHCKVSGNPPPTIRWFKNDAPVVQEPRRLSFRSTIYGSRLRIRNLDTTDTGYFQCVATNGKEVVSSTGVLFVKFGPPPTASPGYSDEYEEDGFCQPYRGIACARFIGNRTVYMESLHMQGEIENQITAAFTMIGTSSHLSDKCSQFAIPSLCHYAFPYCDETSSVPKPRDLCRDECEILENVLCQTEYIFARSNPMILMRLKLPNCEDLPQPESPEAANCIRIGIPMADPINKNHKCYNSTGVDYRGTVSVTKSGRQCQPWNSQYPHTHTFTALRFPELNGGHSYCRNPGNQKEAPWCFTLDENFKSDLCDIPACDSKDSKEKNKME

B1: A2F2 (antibody, human IgG1, lambda, V domains shown)
VH: EVQLLESGGGLVQPGGSLRLSCAASGFTFSDYYMSWVRQAPGKGLEWVSSISPDGSNTYYADSVKGRFTISRDNSKNTLYLQMNSLRAEDTAVYYCAKNLRAFDYWGQGTLVTVSS
VL: QSVLTQPPPASGTPGQRVTISCSGSSSNIGSNTVYWYQQLPGTAPKLLIYANSQRPSGVPDRFSGSKSGTSASLAISGLRSEDEADYYCGSWDYSLSGYVFGGGTKLTVLG
notes: full IgG, human IgG1 heavy and lambda light constant regions; expressed in CHO-S; also called 항-ROR1 IgG 항체 A2F2
Take B1: the binding result in test [1] is listed as “binds”; in test [2] it was “binds”; in test [3], “binds”; in test [4], “binds”; in test [5], “no binding”; with 인간 ROR1 (세포 표면 발현), “binds”.

B2: D2B12 (antibody, human IgG1, lambda, V domains shown)
VH: EVQLLESGGGLVQPGGSLRLSCAASGFTFSNYDMSWVRQAPGKGLEWVSSISPSSGSSIYYADSVKGRFTISRDNSKNTLYLQMNSLRAEDTAVYYCAKAPGWCQAPSCYYDNAMDVWGQGTLVTVSS
VL: B1 VL with P9S, S31N, T33D, Y35S, A51D, N52D, S91A, Y94D
notes: full IgG, human IgG1 heavy and lambda light constant regions; expressed in CHO-S; also called 항-ROR1 IgG 항체 D2B12
Turning to B2, the binding result in test [1] is given as “binds”; in test [2], “binds”; in test [3], “binds”; in test [4] it was “binds”; in test [5], “no binding”; with 인간 ROR1 (세포 표면 발현) it was “binds”.

B3: CC9 (antibody, human IgG1, lambda, V domains shown)
VH: EVQLLESGGGLVQPGGSLRLSCAASGFTFSSYDMSWVRQAPGKGLEWVSGISHGSGNKYYADSVKGRFTISRDNSKNTLYLQMNSLRAEDTAVYYCAKRLSLRRRPSYYSDNAMDVWGQGTLVTVSS
VL: B1 VL with P9S, S23T, S31N, T33A, Y35N, A51Y, N52D, Q54N, S91A, Y94D
notes: full IgG, human IgG1 heavy and lambda light constant regions; expressed in CHO-S; also called 항-ROR1 IgG 항체 CC9
As to B3, the binding result in test [1] is reported as “binds”; in test [2], “binds”; in test [3] it was “binds”; in test [4], “binds”; in test [5], “no binding”; in the test with 인간 ROR1 (세포 표면 발현) it was “binds”.

B4: DG6 (antibody, human IgG1, lambda, V domains shown)
VH: EVQLLESGGGLVQPGGSLRLSCAASGFTFSDYDMSWVRQAPGKGLEWVSVISPDGGSIYYADSVKGRFTISRDNSKNTLYLQMNSLRAEDTAVYYCARDVVECNMNPCSYDNAMDVWGQGTLVTVSS
VL: B1 VL with P9S, T33Y, Y35S, A51D, N52D, Q54H, S91A, Y94D
notes: full IgG, human IgG1 heavy and lambda light constant regions; expressed in CHO-S; also called 항-ROR1 IgG 항체 DG6
Regarding B4, the binding result in test [1] is listed as “binds”; in test [2], “binds”; in test [3], “binds”; in test [4], “binds”; in test [5] it was “no binding”; with 인간 ROR1 (세포 표면 발현), “binds”.

B5: AB4 (antibody, human IgG1, lambda, V domains shown)
VH: EVQLLESGGGLVQPGGSLRLSCAASGFTFSSYDMSWVRQAPGKGLEWVSWISPDSGSIYYADSVKGRFTISRDNSKNTLYLQMNSLRAEDTAVYYCARPTGRFDYWGQGTLVTVSS
VL: B1 VL with P9S, S31N, T33N, Y35N, A51Y, N52D, S53N, Q54K, S91T, Y94A
notes: full IgG, human IgG1 heavy and lambda light constant regions; expressed in CHO-S; also called 항-ROR1 IgG 항체 AB4
Take B5: the binding result is “binds” in test [2], “binds” in test [4] and “no binding” in test [5].

B6: BA6 (antibody, human IgG1, lambda, V domains shown)
VH: EVQLLESGGGLVQPGGSLRLSCAASGFTFSNYDMSWVRQAPGKGLEWVSAIYHSGSSKYYADSVKGRFTISRDNSKNTLYLQMNSLRAEDTAVYYCARGGNGAWDTGFDYWGQGTLVTVSS
VL: B1 VL with P9S, T33D, Y35S, A51Y, N52D, S53N, Q54N, S91A, Y94D
notes: full IgG, human IgG1 heavy and lambda light constant regions; expressed in CHO-S; also called 항-ROR1 IgG 항체 BA6
Regarding B6, the binding result in test [1] is listed as “binds”; in test [2], “binds”; in test [3], “binds”; in test [4] it was “binds”; in test [5], “no binding”; with 인간 ROR1 (세포 표면 발현), “binds”.

B7: C2E3 (antibody, human IgG1, lambda, V domains shown)
VH: EVQLLESGGGLVQPGGSLRLSCAASGFTFSNYAMSWVRQAPGKGLEWVSSISHNSGSTYYADSVKGRFTISRDNSKNTLYLQMNSLRAEDTAVYYCAKFISARKSLGRSYSNGMDVWGQGTLVTVSS
VL: B1 VL with P9S, S23T, T33D, Y35T, N52D, Q54K, S91T
notes: full IgG, human IgG1 heavy and lambda light constant regions; expressed in CHO-S; also called 항-ROR1 IgG 항체 C2E3; ROR1 단일클론항체(C2E3)
For the molecule B7, the binding result in test [2] was “binds”; in test [4], “binds”; in test [5] it was “no binding”.

B8: A2F3 (antibody, human IgG1, lambda, V domains shown)
VH: B5 VH with D54G, S55G, I58K, P99V, T100N
VL: B1 VL with P9S, S31N, T33N, Y35S, N52D, Q54H, G90A, S91T
notes: full IgG, human IgG1 heavy and lambda light constant regions; expressed in CHO-S; also called 항-ROR1 IgG 항체 A2F3
Turning to B8, the binding result in test [1] was “binds”; in test [2], “binds”; in test [3], “binds”; in test [4], “binds”; in test [5] it was “no binding”; with 인간 ROR1 (세포 표면 발현), “binds”.

B9: A2F2 M1 (antibody, human IgG1, lambda, V domains shown)
VH: B1 VH with G55A
VL: B1 VL
notes: full IgG, human IgG1 heavy and lambda light constant regions; expressed in CHO-S; also called 항-ROR1 IgG 항체 A2F2 M1
B9: the binding result in test [1] is listed as “binds”; in test [2] it was “binds”; in test [3], “binds”; in test [4] it was “binds”; in test [5], “no binding”; with 인간 ROR1 (세포 표면 발현) it was “binds”.

B10: BA6 M1 (antibody, human IgG1, lambda, V domains shown)
VH: B6 VH with G102A
VL: B1 VL with P9S, T33D, Y35S, A51Y, N52D, S53N, Q54N, S91A, Y94D
notes: full IgG, human IgG1 heavy and lambda light constant regions; expressed in CHO-S; also called 항-ROR1 IgG 항체 BA6 M1
Take B10: the binding result is given as “binds” in test [1]; “binds” in test [2]; “binds” in test [3]; “binds” in test [4]; “no binding” in test [5]; “binds” with 인간 ROR1 (세포 표면 발현).
